Experimental data reported in IntAct's records for PubMed 24843023.

B1: AP-1 complex subunit mu-1 (Mus musculus), P35585 (parent)
chain: MSASAVYVLDLKGKVLICRNYRGDVDMSEVEHFMPILMEKEEEGMLSPILAHGGVRFMWIKHNNLYLVATSKKNACVSLVFSFLYKVVQVFSEYFKELEEESIRDNFVIIYELLDELMDFGYPQTTDSKILQEYITQEGHKLETGAPRPPATVTNAVSWRSEGIKYRKNEVFLDVIEAVNLLVSANGNVLRSEIVGSIKMRVFLSGMPELRLGLNDKVLFDNTGRGKSKSVELEDVKFHQCVRLSRFENDRTISFIPPDGEFELMSYRLNTHVKPLIWIESVIEKHSHSRIEYMVKAKSQFKRRSTANNVEIHIPVPNDADSPKFKTTVGSVKWVPENSEIVWSVKSFPGGKEYLMRAHFGLPSVEAEDKEGKPPISVKFEIPYFTTSGIQVRYLKIIEKSGYQALPWVRYITQNGDYQLRTQ
B2: Bone marrow stromal antigen 2 (Homo sapiens), Q10589 (parent)
chain: MASTSYDYCRVPMEDGDKRCKLLLGIGILVLLIIVILGVPLIIFTIKANSEACRDGLRAVMECRNVTHLLQQELTEAQKGFQDVEAQAATCNHTVMALMASLDAEKAQGQKKVEELEGEITTLNHKLQDASAEVERLRRENQVLSVRIADKKYYPSSQDSSSAAAPQLLIVLLGLSALLQ
partner: B1 chain
B3: Protein Vpu (Human immunodeficiency virus type 1 group M subtype B (isolate SF162)), P19554 (parent)
chain: MQPLQILAIVALVVAAIIAIVVWTIVYIEYRKILRQRKIDRLIDRITERAEDSGNESEGDQEELSALVERGHLAPWDVDDL

Variants of: B1
Conditions: with bst2_human BST2, Q10589

Variant | effect of a mutation on the interaction
MSASAVYVLDLKGKVLICRNYRGDVDMSEVEHFMPILMEKEEEGMLSPILAHGGVRFMWIKHNNLYLVATSKKNACVSLVFSFLYKVVQVFSEYFKELEEESIRDNFVIIYELLDELMDFGYPQTTDSKILQEYITQEGHKLETGAPRPPATVTNAVSWRSEGIKYRKNEVFLAVIEAVNLLVSANGNVLRSEIVGSIKMRVFLSGMPELRLGLNDKVLFDNTGRGKSKSVELEDVKFHQCVRLSRFENDRTISFIPPDGEFELMSYRLNTHVKPLIWIESVIEKHSHSRIEYMVKAKSQFKRRSTANNVEIHIPVPNDADSPKFKTTVGSVKWVPENSEIVWSVKSFPGGKEYLMRAHFGLPSVEAEDKEGKPPISVKFEIPYFTTSGIQVRYLKIIEKSGYQALPWVRYITQNGDYQLRTQ [D174A] | disrupting interaction

Variants of: B1
Conditions: with tgon3_rat Ttgn1, P19814
Sequence of tgon3_rat Ttgn1, P19814 (P19814 whole entry): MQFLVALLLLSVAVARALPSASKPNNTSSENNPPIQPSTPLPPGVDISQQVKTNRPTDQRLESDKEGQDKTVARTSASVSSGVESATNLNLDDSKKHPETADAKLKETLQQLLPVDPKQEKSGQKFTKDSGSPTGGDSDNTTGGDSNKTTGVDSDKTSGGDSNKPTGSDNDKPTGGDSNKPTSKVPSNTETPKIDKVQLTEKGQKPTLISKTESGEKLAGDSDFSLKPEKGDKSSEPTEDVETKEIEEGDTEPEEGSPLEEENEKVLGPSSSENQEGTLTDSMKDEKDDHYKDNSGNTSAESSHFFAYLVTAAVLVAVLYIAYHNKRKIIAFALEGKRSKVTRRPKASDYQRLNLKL

Variant | effect of a mutation on the interaction
MSASAVYVLDLKGKVLICRNYRGDVDMSEVEHFMPILMEKEEEGMLSPILAHGGVRFMWIKHNNLYLVATSKKNACVSLVFSFLYKVVQVFSEYFKELEEESIRDNFVIIYELLDELMDFGYPQTTDSKILQEYITQEGHKLETGAPRPPATVTNAVSWRSEGIKYRKNEVFLAVIEAVNLLVSANGNVLRSEIVGSIKMRVFLSGMPELRLGLNDKVLFDNTGRGKSKSVELEDVKFHQCVRLSRFENDRTISFIPPDGEFELMSYRLNTHVKPLIWIESVIEKHSHSRIEYMVKAKSQFKRRSTANNVEIHIPVPNDADSPKFKTTVGSVKWVPENSEIVWSVKSFPGGKEYLMRAHFGLPSVEAEDKEGKPPISVKFEIPYFTTSGIQVRYLKIIEKSGYQALPWVRYITQNGDYQLRTQ [D174A] | disrupting interaction

Variants of: B2
Conditions: with ap1m1_mouse Ap1m1, P35585

Variant | effect of a mutation on the interaction
MASTSYDYCRAPMEDGDKRCKLLLGIGILVLLIIVILGVPLIIFTIKANSEACRDGLRAVMECRNVTHLLQQELTEAQKGFQDVEAQAATCNHTVMALMASLDAEKAQGQKKVEELEGEITTLNHKLQDASAEVERLRRENQVLSVRIADKKYYPSSQDSSSAAAPQLLIVLLGLSALLQ [V11A] | disrupting interaction
MASTSYDACRVPMEDGDKRCKLLLGIGILVLLIIVILGVPLIIFTIKANSEACRDGLRAVMECRNVTHLLQQELTEAQKGFQDVEAQAATCNHTVMALMASLDAEKAQGQKKVEELEGEITTLNHKLQDASAEVERLRRENQVLSVRIADKKYYPSSQDSSSAAAPQLLIVLLGLSALLQ [Y8A] | disrupting interaction
MASTSADYCRVPMEDGDKRCKLLLGIGILVLLIIVILGVPLIIFTIKANSEACRDGLRAVMECRNVTHLLQQELTEAQKGFQDVEAQAATCNHTVMALMASLDAEKAQGQKKVEELEGEITTLNHKLQDASAEVERLRRENQVLSVRIADKKYYPSSQDSSSAAAPQLLIVLLGLSALLQ [Y6A] | disrupting interaction
MASTSADACRVPMEDGDKRCKLLLGIGILVLLIIVILGVPLIIFTIKANSEACRDGLRAVMECRNVTHLLQQELTEAQKGFQDVEAQAATCNHTVMALMASLDAEKAQGQKKVEELEGEITTLNHKLQDASAEVERLRRENQVLSVRIADKKYYPSSQDSSSAAAPQLLIVLLGLSALLQ [Y6A;Y8A] | disrupting interaction

Variants of: B3
Conditions: with fbw1a_human BTRC

Variant | effect of a mutation on the interaction
S53N;S57N | decreasing interaction
